Data taken from patent US20220411536A1 (NUMAB THERAPEUTICS, published 2022).
Substitutions are numbered along the chain they refer to.

Columns and labels:
[1] = molecular target: CD137 on transgenic NF-kB Jurkat reporter cells (Homo sapiens (Human), UniProt Q07011 24-255); experiment: cell-based or functional assay
[2] = molecular target: T1, human PD-L1 expressed on cells (CHO-PD-L1, HCC1954, HCC827) (human, UniProt Q9NZQ7 19-290); experiment: flow cytometry with human SA, inhibition of PD-1 binding to HCC1954 cells
T1 construct: whole, on cells; also called hPD-L1; PD-L1 expressing cells

[3] = molecular target: T1, human PD-L1 expressed on cells …; experiment: flow cytometry with human SA, inhibition of PD-1 binding to HCC827 cells
[4] = molecular target: T2, CD3e on Jurkat PD-1 NFAT reporter T cells or on T cells of human PBMCs (human, UniProt P07766 23-207); experiment: cell-based or functional assay
[5] = molecular target: T2, CD3e on Jurkat PD-1 NFAT reporter T …; experiment: cell-based or functional assay; remark: listed apart in the source
[6] = molecular target: T1, human PD-L1 expressed on cells …; experiment: flow cytometry, inhibition of biotinylated PD-1 binding to HCC827 cells
[7] = molecular target: T1, human PD-L1 expressed on cells …; experiment: flow cytometry, inhibition of biotinylated PD-1 binding to HCC1954 cells
[8] = molecular target: T3, recombinant human Her2 ECD (SinoBiological, cat. 10004-HCCH) (human, UniProt P04626 23-652); experiment: SPR, immobilised Her2 ECD
T3 construct: extracellular domain; bought protein

[9] = molecular target: T4, recombinant human CD3E ECD (SinoBiological, cat. 10977-H08H) (human, UniProt P07766 23-126); experiment: SPR, immobilised CD3e ECD, two-state model (kd1)
T4 construct: extracellular domain; bought protein; also called CD3s
T4 sequence (P07766 23-126): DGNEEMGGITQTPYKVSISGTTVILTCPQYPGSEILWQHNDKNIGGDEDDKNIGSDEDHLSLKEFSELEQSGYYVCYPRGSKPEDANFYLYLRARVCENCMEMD

[10] = molecular target: T5, recombinant human IL-23R (custom-made by Trenzyme) (human, UniProt Q5VWK5 24-355); experiment: SPR, immobilised IL-23R
T5 sequence (looked up): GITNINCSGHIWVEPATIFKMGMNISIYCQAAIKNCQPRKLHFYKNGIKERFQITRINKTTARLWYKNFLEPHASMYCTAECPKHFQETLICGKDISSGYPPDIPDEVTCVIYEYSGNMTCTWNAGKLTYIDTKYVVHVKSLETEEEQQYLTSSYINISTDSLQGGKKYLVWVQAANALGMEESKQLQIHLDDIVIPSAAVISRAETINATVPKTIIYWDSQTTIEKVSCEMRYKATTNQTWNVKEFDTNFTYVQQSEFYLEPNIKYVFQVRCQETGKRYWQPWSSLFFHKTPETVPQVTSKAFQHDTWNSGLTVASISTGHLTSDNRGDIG

[11] = molecular target: T6, Fc-tagged human PD-L1 extracellular domain (SinoBiological, cat. 10084-H02H) (human, UniProt Q9NZQ7 19-238); experiment: SPR, captured Fc-PD-L1 ECD, kinetic
T6 construct: extracellular domain; also called hPD-L1; not shown: Fc tag of the bought protein

[12] = molecular target: T4, recombinant human CD3E ECD …; experiment: SPR, immobilised CD3e ECD, two-state model (ka1)
[13] = molecular target: T4, recombinant human CD3E ECD …; experiment: SPR, immobilised CD3e ECD, two-state model
mouse serum albumin = molecular target: T7, mouse serum albumin (mouse, UniProt P07724 25-608); experiment: SPR, immobilised MSA, pH 5.5
T7 construct: also called MSA; mouse SA
T7 sequence (P07724 25-608 limits assumed): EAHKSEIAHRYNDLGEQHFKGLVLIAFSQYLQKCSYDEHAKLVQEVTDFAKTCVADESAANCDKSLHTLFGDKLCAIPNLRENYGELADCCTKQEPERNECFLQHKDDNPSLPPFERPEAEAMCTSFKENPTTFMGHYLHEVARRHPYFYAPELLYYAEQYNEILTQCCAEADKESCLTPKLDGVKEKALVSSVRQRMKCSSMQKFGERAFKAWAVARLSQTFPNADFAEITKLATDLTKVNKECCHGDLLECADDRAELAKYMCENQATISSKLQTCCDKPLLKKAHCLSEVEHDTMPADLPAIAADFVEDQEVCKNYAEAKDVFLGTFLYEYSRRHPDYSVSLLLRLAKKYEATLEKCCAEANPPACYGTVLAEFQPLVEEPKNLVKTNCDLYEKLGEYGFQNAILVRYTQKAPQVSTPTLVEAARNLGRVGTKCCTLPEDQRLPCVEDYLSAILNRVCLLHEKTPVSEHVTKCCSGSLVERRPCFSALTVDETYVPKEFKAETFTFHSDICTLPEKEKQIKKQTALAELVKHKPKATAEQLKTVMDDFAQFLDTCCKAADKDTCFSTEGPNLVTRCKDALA

human serum albumin = molecular target: T8, human serum albumin (human, UniProt P02768 25-609); experiment: SPR, immobilised HSA, pH 5.5
T8 construct: also called HSA; human SA

[14] = molecular target: T6, Fc-tagged human PD-L1 extracellular …; experiment: SPR, captured Fc-PD-L1 ECD

B1: PRO1778 (multispecific antibody)
chain 1: not shown
chain 2: DVVMTQSPSSLSASVGDRVTITCQASQIISSRSAWYQQKPGQPPKLLIYQASKLASGVPSRFSGSGSGTDFTLTISSLQPEDFATYYCQCTYIDSNFGAFGGGTKLTVLGGGGGSGGGGSGGGGSGGGGSEVQLVESGGGLVQPGGSLRLSCAASGFSFSSSYWICWVRQAPGKGLEWVGCVFTGDGTTYYASWAKGRFTISRDNSKNTVYLQMNSLRAEDTATYFCARPVSVYYYGMDLWGQGTLVTVSSGGGGSGGGGSQVQLQESGPGLVKPSETLSLTCKVSGFSFSSGYDMCWIRQPPGKGLEWIGCVVAGSVDITYYASWAKGRVTISVDSSKNQFSLKLSSVTAADTAVYYCARKDAYSDAFNLWGQGTLVTVSSGGGSGGGSEVQLVESGGGLVQPGGSLRLSCAASGFSFSANYYPCWVRQAPGKCLEWIGCIYGGSSDITYDANWTKGRFTISRDNSKNTVYLQMNSLRAEDTAVYYCARSAWYSGWGGDLWGQGTLVTVSS
EC50, NFkB reporter gene assay, HCC1954 cells [1]: 0.661 nM
IC50 [2]: 1.42 µg/mL
IC50 [3]: 6.72 µg/mL

B2: PRO1780 (multispecific antibody)
chain 1: not shown
chain 2: DIQMTQSPSSLSASVGDRVTITCQASQSISNRLAWYQQKPGKAPKLLIYSASTLASGVPSRFSGSGSGTDFTLTISSLQPEDFATYYCQSTYYGNDGNAFGCGTKVTVLGGGGGSGGGGSGGGGSGGGGSEVQLVESGGGLVQPGGSLRLSCAASGFSFSANYYPCWVRQAPGKCLEWIGCIYGGSSDITYDANWTKGRFTISRDNSKNTVYLQMNSLRAEDTAVYYCARSAWYSGWGGDLWGQGTLVTVSSGGGGSGGGGSQVQLQESGPGLVKPSETLSLTCKVSGFSFSSGYDMCWIRQPPGKGLEWIGCVVAGSVDITYYASWAKGRVTISVDSSKNQFSLKLSSVTAADTAVYYCARKDAYSDAFNLWGQGTLVTVSSGGGSGGGSEVQLVESGGGLVQPGGSLRLSCAASGFSFSSSYWICWVRQAPGKCLEWVGCVFTGDGTTYYASWAKGRFTISRDNSKNTVYLQMNSLRAEDTATYFCARPVSVYYYGMDLWGQGTLVTVSS
EC50, NFkB reporter gene assay, HCC1954 cells [1]: 0.603 nM
IC50 [2]: 0.695 µg/mL
IC50 [3]: 32.6 µg/mL

B3: PRO1455 (multispecific antibody)
chain 1: DIQMTQSPSSLSASVGDRVTITCQASENIYSFLAWYQQKPGKAPKLLIYSASKLAAGVPSRFSGSGSGTDFTLTISSLQPEDFATYYCQQTNRYSNPDIYNVFGTGTKVTVLGTVAAPSVFIFPPSDEQLKSGTASVVCLLNNFYPREAKVQWKVDNALQSGNSQESVTEQDSKDSTYSLSSTLTLSKADYEKHKVYACEVTHQGLSSPVTKSFNRGECGGGGSGGGGSDIQMTQSPSSLSASVGDRVTITCQSSQSVFSNNYLAWFQQKPGQSPKRLIYSASTLASGVPSRFSGSGSGTDFTLTISSLQPEDFATYYCLGSYACSSADCYVFGTGTKVTVLGGGGGSGGGGSGGGGSGGGGSEVQLVESGGGLVQPGGSLRLSCAASGFSLSSYDMSWVRQAPGKGLAWIGASYASGPTYYASWAKGRFTISRDNSKNTVYLQMNSLRAEDTATYFCARGGWTGTSHSNIWGQGTLVTVSS
chain 2: EVQLVESGGGLVQPGGSLRLSCAASGIDFNSNYYMCWVRQAPGKGLEWIGCIYVGSHVNTYYANWAKGRFTISRDNSKNTVYLQMNSLRAEDTAVYYCATSGSSVLYFKFWGQGTLVTVSSASTKGPSVFPLAPSSKSTSGGTAALGCLVKDYFPEPVTVSWNSGALTSGVHTFPAVLQSSGLYSLSSVVTVPSSSLGTQTYICNVNHKPSNTKVDKKVEPKSCGGGGSGGGGSDIQMTQSPSSLSASVGDRVTITCQASQSINDYLAWYQQKPGKAPKLLIYKASTLASGVPSRFSGSGSGTDFTLTISSLQPEDFATYYCQQAYIITDIDNVFGTGTKVTVLGGGGGSGGGGSGGGGSGGGGSQVQLQESGPGLVKPSETLSLTCKVSGFSFSSGYDMCWIRQPPGKGLEWIGCVVAGSVDITYYASWAKGRVTISVDSSKNQFSLKLSSVTAADTAVYYCARKDAYSDAFNLWGQGTLVTVSS
IC50, NFAT reporter, HCC1954 cells [4]: 4.07 nM
fold weaker activation than PRO1454, NFAT reporter, HCC1954 cells [5]: 27 fold
IC50 [6]: 2.8 µg/mL
IC50 [7]: 2.85 µg/mL

B4: PRO1498 (multispecific antibody)
chain 1: B3 chain 1
chain 2: B3 chain 2 with Q324A
binding result [8]: no binding (tested: 90 nM highest concentration)
koff [9]: 0.00584 s⁻¹
IC50, NFAT reporter, HCC1954 cells [4]: 172 nM
rel. max. activation vs PRO1497, NFAT reporter, HCC1954 cells [4]: 71%
Kd [10]: 0.563 nM
koff [10]: 0.000278 s⁻¹
kon [10]: 495000 M⁻¹ s⁻¹
Kd [11]: 332 nM
koff [11]: 0.000379 s⁻¹
kon [11]: 1140 M⁻¹ s⁻¹
fold weaker activation than PRO1497, NFAT reporter, HCC1954 cells [5]: 475 fold
kon [12]: 197000 M⁻¹ s⁻¹
IC50 [6]: 8.54 µg/mL
IC50 [7]: 7.05 µg/mL
KD1 [13]: 29.6 nM
Kd [13]: 19.5 nM
kd2 [13]: 0.00198 s⁻¹

B5: PRO1558 (multispecific antibody)
chain 1: DIQMTQSPSSLSASVGDRVTITCQASENIYSFLAWYQQKPGKAPKLLIYSASKLAAGVPSRFSGSGSGTDFTLTISSLQPEDFATYYCQQTNRYSNPDIYNVFGTGTKVTVLGGGGGSGGGGSGGGGSGGGGSEVQLVESGGGLVQPGGSLRLSCAASGIDFNSNYYMCWVRQAPGKGLEWIGCIYVGSHVNTYYANWAKGRFTISRDNSKNTVYLQMNSLRAEDTAVYYCATSGSSVLYFKFWGQGTLVTVSSGGGGSGGGGSDVVMTQSPSSLSASVGDRVTITCQASQIISSRSAWYQQKPGQPPKLLIYQASKLASGVPSRFSGSGSGTDFTLTISSLQPEDFATYYCQCTYIDSNFGAFGCGTKLTVLGGGSGGSDIQMTQSPSSLSASVGDRVTITCQSSQSVFSNNYLAWFQQKPGQSPKRLIYSASTLASGVPSRFSGSGSGTDFTLTISSLQPEDFATYYCLGSYACSSADCYVFGTGTKVTVLG
chain 2: not shown
Kd [8]: 0.3 nM
koff [8]: 6.07e-05 s⁻¹
kon [8]: 202000 M⁻¹ s⁻¹
koff [9]: 0.00496 s⁻¹
Kd (mouse serum albumin): 11.5 nM
koff (mouse serum albumin): 0.0011 s⁻¹
kon (mouse serum albumin): 95800 M⁻¹ s⁻¹
IC50, NFAT reporter, HCC1954 cells [4]: 2.71 nM
rel. max. activation vs PRO1497, NFAT reporter, HCC1954 cells [4]: 53%
Kd [10]: 0.868 nM
koff [10]: 0.000493 s⁻¹
kon [10]: 568000 M⁻¹ s⁻¹
Kd (human serum albumin): 0.501 nM
koff (human serum albumin): 0.000123 s⁻¹
kon (human serum albumin): 245000 M⁻¹ s⁻¹
binding result [14]: no binding
kon [12]: 315000 M⁻¹ s⁻¹
KD1 [13]: 15.7 nM
Kd [13]: 7.95 nM
kd2 [13]: 0.00335 s⁻¹
